Laboratory results taken from patent US8624002B2, “Prostaglandin E2 binding proteins and uses thereof” (AbbVie, Inc., priority 2008, dated 2014).

B1: 2B5-8.0: recombinant anti-PGE2 antibody from solved 2B5 sequence; VH SEQ ID NO 42, VL SEQ ID NO 43 (antibody, V domains shown)
VH: QVQLQQSGPELVRPGSSVKISCKASGYTFTKYWLGWVKQRPGHGLEWIGDIYPGYDYTHYNEKFKDKATLTVDTSSSTAYMQLSSLTSEDSAIYYCARSDGSSTYWGQGTLVTVSA
VL: DVLMTQTPLSLPVSLGDQASISCTSSQNIVHSNGNTYLEWYLQRPGQSPKLLIYKVSNRFSGVPDRFSGSGSGTVFTLKISRVEAEDLGVYYCFQVSHVPYTFGGGTKLEIKR
B2: Hu2B5.4: humanized 2B5-8.0; VH SEQ ID NO 66, VL SEQ ID NO 67 (antibody, V domains shown)
VH: EVQLVQSGAEVKKPGASVKVSCKASGYTFTKYWLGWVRQAPGQGLEWIGDIYPGYDYTHYNEKFKDRATLTVDTSTSTAYMELSSLRSDDTAVYYCARSDGSSTYWGQGTLVTVSS
VL: DVLMTQTPLSLPVTPGEPASISCTSSQNIVHSNGNTYLEWYLQKPGQSPQLLIYKVSNRFSGVPDRFSGSGSGTDFTLKISRVEAEDVGVYYCFQVSHVPYTFGGGTKVEIKR

Assays:
[1] = tested on: carrageenan-induced paw edema; assay: Carrageenan-induced footpad edema model; type: in vivo, C57.BL/6 mice
Method: Carrageenan-Induced Footpad Edema is an acute rodent model of innate immune function. The in vivo efficacy of mouse anti-PGE2 antibody 2B5-8.0 is assessed in a carragenan-induced paw edema model. The induction of paw inflammation with carrageenan is performed similarly as previously described (Joseph P. Portanova, et al. J. Exp. Med. 184: 883-891 (1996)). Intradermal (ID) injection of an inflammatory agent causes a rapid influx of neutrophils and fluid edema which peaks at approximately 4 hours, followed by an influx of macrophages and monocytes which peaks at approximately 48 hours. C57.BL/6 mice (8-10-week-old, Jackson Laboratories, Bar Harbor, Me.) were injected ID in the rear footpad with 30 μL of either PBS (left) or λ-carrageenen (Sigma Aldrich, St. Louis, Mo.) in PBS (right) at a concentration of 5.0 mg/mL (150 μg/mouse). Rear footpad thickness was measured by Dyer spring caliper model #310-119 at baseline (time=0), and 4 hours post carrageenan challenge. Significant difference for paw thickness was determined by comparing mean paw swelling for each treatment group to vehicle in a Student's two-tailed t-test. Mice were given a dose titration of an anti-PGE2 antibody (2B5-8.0) intraperitonially (IP) 18 hours prior to carrageenan challenge, or Indomethacin, PO 2 hours prior to challenge. The endpoint measured was the difference in paw swelling (edema) between right and left paws 4 hours after treatment.

[2] = Pharmacokinetics of hu2B5.7 and hu2B5.4 in Sprague-Dawley rats; type: in vivo; conditions: male Sprague-Dawley rats, IV 4 mg/kg
Method: Pharmacokinetic parameters were calculated by non-compartmental analysis using WinNonlin.
MSD streptavidin plates (Meso Scale Discovery) were washed with phosphate buffered saline containing 0.05% Tween-20 (diluted from 10×PBS, Abbott Bioresearch Center, Media Room, Worcester, Mass. and Tween-20, Sigma, St. Louis, Mo.). Plates were blocked with 250 μL/well blocking solution (MSD Block, Meso Scale Discovery, diluted to 3% final concentration in PBS) for 1 hour, covered, with shaking (600 rpm) at room temperature. After washing, 70 μL of biotinylated PGE2 (Prostoglandin E2-biotinamide, Cayman Chemical, Ann Arbor, Mich., cat# 10006987, lot# 190831-191028; 0.01 ug/mL in assay buffer) was added to each well. The plates were covered and incubated with shaking (600 rpm) for 1 hour at room temperature.
Prior to analysis, rat serum samples were thawed on ice, mixed gently, and centrifuged at 14,000 rpm for 3 minutes at 4° C. in an eppendorf centrifuge. Standard curve and control samples were prepared in rat serum. Tecan Evo automated liquid handling station was used to dilute standard curve, high, medium, and low controls, and serum samples in assay buffer, keeping 1% final serum concentration constant. MSD plates were washed again and study samples, standard curve samples and blanks, as well as high, medium, and low controls were added (70 μL/well). The plates were covered, and incubated for 1 hour with shaking (600 rpm) at room temperature.
After incubation, the MSD plates were washed, and 70 μL sulfo-tagged goat anti-human IgG (Meso Scale Discovery; diluted to 1 ug/mL in assay buffer) was added to each well. The MSD plates were covered, and incubated with shaking (600 rpm) for 1 hour at room temperature, then the plates were washed and developed with 2× Read Buffer (Meso Scale Discovery). Chemilumeniscence was measured within ten minutes on the MSD Sector Imager 6000.
Standard curves were analyzed using four-parameter logistic fit and sample concentrations were calculated by XLfit4 software version 2.2.1 Build 16, ([…].). Pharmacokinetic parameters were calculated for each animal using Winonlin software version 5.0.1 (Pharsight Corporation, Mountain View, Calif.) by noncompartmental analysis.
Surgically altered jugular vein cannulated, JVC) male Sprague-Dawley Rats (approximately seven weeks old, weighing 240-390 grams) were purchased from Charles River Laboratories (Wilmington, Mass.). The animals were housed in rooms maintained at constant temperature and humidity under a 12 hour light/dark cycle, fed with normal rodent chow and were allowed food and water ad libitum. Hydration and clinical conditions of the animals were monitored daily.
0.2 mL blood samples were collected from the rats at various timepoints, allowed to clot for 30 minutes at room temperature, centrifuged for 3 minutes at 13,200 rpm, the serum transferred to eppendorf tubes and stored frozen at −80° C.

Molecule | Δ Paw Swelling (mm) ([1]; 10 mg/kg, i.p., 18 hours prior to carrageenan, 4 hours post challenge) | % Inhibition ([1]; 10 mg/kg, i.p., paw swelling 4 hours post challenge) [%] | maximal inhibition of paw swelling ([1]; at 10 mg/kg) | AUC0-∞ [2] [µg·h/mL] | CL [2] [mL/day/kg] | MRT [2] [days] | T½ [2] [days] | Vss [2] [L/kg] | Vz [2] [L/kg]
B1 | 0.529 ± 0.04 | 38 ± 4.6 | 40-50% |  |  |  |  |  | 
B2 |  |  |  | 11800 ± 2000 | 8.4 ± 1.7 | 18.0 ± 6.0 | 12.4 | 0.145 ± 0.0318 | 0.143 ± 0.0402
